Legend:
human gut tube spheroids [1] = experiment: HOX/MSX2 gene expression in patterned gut tube spheroids after 3 days (RNA-seq, QPCR); type: cell-based
Protocol: (§1) Patterning midgut/hingut spheroids into HIOs and HCOs. Spheroids were collected from 24 well plate and plated in Matrigel (BD). To generate proximal HIOs, spheroids were overlayed with intestinal growth medium (Advanced DMEM/F-12, N2, B27, 15 mM HEPES, 2 mM L-glutamine, penicillin-streptomycin) supplemented with 100 ng/mL EGF (R&D) alone, or 100 ng/mL EGF with 100 ng/ml NOGGIN (R&D). To generate HCOs, spheroids were overlayed with 100 ng/mL EGF plus 100 ng/mL BMP (R&D). For SHH experiments, 1 pM SAG (Tocris), 5 pM SAG or 2.5 pM Cyclopamine (Tocris) were added to control media for initial 3 days after which RNA samples were collected. Media was changed at 3 days with only EGF being maintained in the media for all patterning conditions. Media was then changed twice weekly thereafter. HIOs and HCOs were replated in fresh Matrigel every 14 days.
(§2) RNA isolation and QPCR. RNA was extracted using Nucleospin® RNA extraction kit (Macharey-Nagel) and reverse transcribed into cDNA using Superscript VILO (Invitrogen) according to manufacturer's protocols. QPCR primers were designed using the qPrimerDepot webased tool (primerdepot.nci.nih.gov). QPCR was performed using Quantitect SYBR® Green PCR kit (Qiagen) and a QuantStudio™ 6 Flex Real-Time PCR System (Applied Biosystems).

BMP signaling [2] = experiment: BMP inhibition in mouse whole embryo culture; type: in vivo
Protocol: For mouse whole embryo cultures, e7.5 embryos were cultured in a 1:1 mixture of Ham's F12 medium and whole embryo culture rat serum (Harlan Labs) containing N-2 Supplement (Invitrogen). Vessels were placed on a roller culture apparatus (BTC Engineering, Cambridge, UK) and maintained for 2 days at 37° C. and gassed with 20% 02 and 5% CO2. BMP signaling was inhibited by treatment with 5 pM DMH-1, with DMSO serving as a vehicle control.
(§3) Tissue processing, immunofluorescence and microscopy. Tissues were fixed for 1-3 hours in 4% paraformaldehyde (PFA) on ice depending on the size of the tissue. Organoids and transplant engraftments were frozen in OCT. OCT sections were blocked using donkey serum (5% serum in 1×PBS plus 0.5% Triton-X) for 30 min and incubated with primary antibody overnight at 4° C. Slides were then washed 3× with 1×PBS plus 0.5% Triton-X and incubated in secondary antibody with DAPI in blocking buffer for 2 h at room temperature. See Table 2 for a list of antibodies and respective dilutions. Slides were then washed 2× with 1×PBS plus 0.5% Triton-X followed by a final wash in 1×PBS. Coverslips were then mounted using Fluoromount-G® (SouthernBiotech). Images were captured on a Nikon A1 confocal microscope and analyzed using Imaris Imaging Software (Bitplane). For whole-mount staining, tissues were processed similarly as above and then cleared in Murray's solution. Imaging was performed with a Nikon A1 confocal microscope.
(§4) Quantification of immunofluorescence images. Image quantitation of whole embryos was done by splitting images into separated channels and then measuring pixel area using ImageJ (NIH). Pixel area was determined for each channel, the ratio between channels was determined and the ratio for control treated embryos was represented as 100. Quantitation of in vitro and in vivo grown organoids was done on sections from which images were captured as explained above. The number of CDX2, GATA4 and SATB2 positive nuclei were quantified using the spot function in [marls following calibration with human biopsy samples.

BMP signaling [3] = experiment: BMP inhibition in Xenopus tropicalis embryos; type: in vivo; conditions: DMH-1 20 pM vs DMSO
Protocol: BMP inhibition in frog and mouse embryos. Xenopus tropicalis embryo culture and small molecule treatments were performed as previously described (Rankin et al., 2012; Rankin et al., 2015). DMH-1 (Sigma D8946) was dissolved in DMSO, and used at final concentration of 20 pM; equal concentrations of DMSO vehicle were used on sibling embryos. Inhibitor treatment experiments were repeated twice with similar effects on the markers analyzed. For Xenopus in-situ hybridization analyses, DIG-labeled antisense RNA probes were generated using linearized full-length cDNA plasmid templates (X. tropicalis satb2 was purchased from ATCC, clone 7720194; HinDIII, T7 for probe; X. laevis satb2 was a gift for Tyler Square and Daniel Medeiros, University of Colorado-Boulder; Xbal, Sp6 for probe). Complete details describing probe synthesis and the in-situ hybridization protocol are available on Xenbase (hftp://wiki.xenbase.orq/xenwiki/index.php/Protocols).

transplanted organoids = experiment: Transplantation of patterned organoids under the mouse kidney capsule; type: in vivo
Protocol: as §3

human gut tube spheroids [4] = experiment: Patterning of human gut tube spheroids (pSMAD1/5/8 and SATB2 staining); type: cell-based; conditions: spheroids treated for 12 hours; 100 ng/mL
Protocol: as §1, with “Media was then changed twice weekly thereafter. HIOs and HCOs were replated in fresh Matrigel every 14 days.” left out
Tissue processing, immunofluorescence and microscopy. […] Images were captured on a Nikon A1 confocal microscope and analyzed using Imaris Imaging Software (Bitplane). […]
as §4, with “The number of CDX2, GATA4 and SATB2 positive nuclei were quantified using the spot function in [marls following calibration with human biopsy samples.” left out

organoid mesenchyme = experiment: Patterning markers in isolated organoid mesenchyme cultures (QPCR); type: cell-based, human; conditions: mesenchymal cell cultures expanded for 2-3 weeks
Protocol: as §2

[5] = system: human intestinal organoids; experiment: Regional markers in organoids after prolonged in vitro culture (IF, QPCR); type: cell-based
Protocol: as §1, §3, §4, §2

[6] = 28-day old organoids after initial 3 day treatment

CNC1CCC(N(Cc2cccc(-c3ccncc3)c2)C(=O)c2sc3ccccc3c2Cl)CC1 (stereo not shown) [SAG]
SAG-mediated activation of MSX2, HOXA13, HOXD13 relative to activation mediated by BMP2 (human gut tube spheroids [1]; 3 days): only a fraction
activation of MSX2, HOXA13 and HOXD13 (QPCR) (human gut tube spheroids [1]; SAG added to control media for initial 3 days): concentration dependent activation

CC(C)Oc1ccc(-c2cnc3c(-c4ccnc5ccccc45)cnn3c2)cc1 [DMH-1]
Satb2 expression in the first brachial arch (BMP signaling [2]; DMH-1 treated mouse embryos): lost
Satb2 expression in the posterior gut tube (BMP signaling [2]; e7.5 mouse embryos, 48 hours of DMH-1 treatment): loss of Satb2 expression
pSmad1/5/8 levels (BMP signaling [2]; e7.5 mouse embryos, 48 hours of DMH-1 treatment, 5 µM DMH-1 vs DMSO): significant reduction
TGFI3 signaling as measured by pSmad2/3 levels (BMP signaling [2]; mouse embryos cultured in DMSO or DMH-1): no impact
Satb2 expression in the hindgut and brachial arches (BMP signaling [3]): loss of Satb2 expression

B1: NOGGIN: BMP inhibitor NOGGIN (R&D), 100 ng/ml, used to generate proximal HIOs (protein, UniProt Q13253 28-232, looked up)
Noggin: QHYLHIRPAPSDNLPLVDLIEHPDPIFDPKEKDLNETLLRSLLGGHYDPGFMATSPPEDRPGGGGGAAGGAEDLAELDQLLRQRPSGAMPSEIKGLEFSEGLAQGKKQRLSKKLRRKLQMWLWSQTFCPVLYAWNDLGSRFWPRYVKVGSCFSKRSCSVPEGMVCKPSKSVHLTVLRWRCQRRGGQRCGWIPIQYPIISECKCSC
efficiency of organoid engraftment (transplanted organoids; compared with HCOs): more efficient
epithelial morphology of transplanted organoids (transplanted organoids; under the mouse kidney capsule for 6-10 weeks): formed well-defined crypts and tall villi
BMP signaling levels by nuclear pSMAD1/5/8 staining (human gut tube spheroids [4]): abolished this staining
HOXD3 expression / proximal identity of mesenchyme (organoid mesenchyme): stable proximal identity
SATB2 expression after re-patterning with NOGGIN ([5]; 3-day BMP treated spheroids shifted to NOGGIN-containing media for 3 days): a subset of organoids lost SATB2 expression
Levels of ONECUT1 (marker of proximal small intestine) [5, 6]: highest
SATB2 in the epithelium [5, 6]: absent
MUC5B staining (colon-specific goblet cell marker) ([5]; 28-day organoids): absent
goblet cells by intracellular MUC2 staining ([5]; at 28 days): rare intracellular MUC2 staining
